# A protein production outcome set (Wang et al. 2014)
# Assay: label from the status in PepcDB records
row,Sequence,protein production
1,MNDPQKLCDVNFFRPRKGYMTGEVAIIAAVLVGWAVANFGFQGVLALLAQSPDGEGILTRLTFLSFPWHFWFTGQFLPLWFIILCVLFNIYIDRHTEQHSRRRDRSHD,failed
2,MNDQELRAYLSQAKTIAVLGAHKDPSRPAHYVPRYLREQGYRVLPVNPRFQGEELFGEEAVASLLDLKEPVDILDVFRPPSALMDHLPEVLALRPGLVWLQSGIRHPEFEKALKEAGIPVVADRCLMVEHKRLFRGPLPL,not failed
3,MNDRMDPPPPRIEDILPHRGSMLLLAHVDTWDDETLRASAHVDPTAWYADPEGAMPAWFGIELMAQAIAAHVGLLSMREGNPARPGVLLGSRKYEAHAPAFAPAQPLSIAVQEVLRSTEGHGAYACTIAAGGRDLAQAVIKVYQPTDFQAFIEGSFAS,failed
4,MNDTLLTTYTLAEGLHWLDLIGVLAFAMSGALLGVRKRFDLFGVLVLGAVTAVGGGAIRDSLTGQTPPLFLRDETYLWTALLGALLAFAFGERLARFERTLSLFDSAGLALFATSGALGAIKIGLGPLGVVFAGMLSGVGGGIIRDLIANEVPEVMYRRDQLYATAAAAGAGAVWLLAPHFTPFQAQAGGALLVLFLRWVSRRQWVRLPVRRLPE,failed
5,MNEEKQQELLISVIITNYNYDQFIDQAIESVLSQTYYNFELIIVDDGSTDNSRDVISSYTDSRIKALVKNNGGQASAFNAGFEQANGEIICFLDSDDWWKPEKLETIIRWHYFINKDYAIFQHVLDVWYEGKTRPYKHILPSGDCFAEMKKVKKLDFFVPTSGLSFPKKILDRIFPIPIKFIIAADSYIMRTACVFNMVYSIPKSLGFYRQHDNTVFLNPDFDLQPFLKEILIPELNQFYQKYRINYQIEISDYNFNERKKNKKQKIFEYLKKVFFLEHHHHHH,failed
6,MNEFMEPLDRISAETLGHYERNAEAFFEGTRDHDVSQNIAALLSHIRTEPPFTVLDFGCGPGRDLKAFTELGHRAVGLDGAFRFVEMARDYSGCEVWHQDFLKLDLPEEHFDGIFANATLFHVPSRELPRVLGELRAALKPEGVLFASNPRGRNEEGWNRGRYGVYHDLDTWRRFLTSAGFLELEHYYRPAGLPRDQQPWLASVWRRTLEHHHHHH,not failed
7,MNEIITWILIVICLTQSAVFSGLTIGIFGLGRLRLEIEAEANNKNAIKILQVRRDSNFLLTTLLWGNVGVNVLIAQLTDSVMAGTFAFLFSTFGITCFGEIMPQAYFSRNALDIGAKLTPLVRFYQMLLYPVAKPTALVLDWWLGREKLELFREQAMRIMLEKHIESGKTDIGTFEGIGALNFLSIDDVSISDEGSIIDSRSIISLPVENNRPVFPPFNREPSDPFLQKIEASGKKWVIITSPENEPVMVLDADGFLRDAVYKKGPFLPLIYCHFPVVVKSPETRLEKVIRQFKVYPQYPEDDVIDQDLILYWGEEKRIITGSDILGRLLRGIVVECELGSGCEIPVPPSQPGFVRRTAFRRGKKKEIENLKRK,not failed
8,MNEISVVLPAYNEEENIQKLVKRWQQLCKDLKYKYELSLNIFVIDDGSKDKTEVIGRELERKYDNFYLIKHDKNKGLGEAINTGIKYVMEKRSDSKYVCIMDCDNTQDPRYVFSMIEKMEKTDVVIASRYQKGSCVKGVPFFRLTASYGARFVYTIFLGVKNVRDYTCGYRLYRTSALKTAFKVFGESFIEESGFTCMVELLYKLNICGAVFKEVPFTLRYDFKGGVSKMKVLITAINSVKLTLRLKKIRKGVEPVLEDLEHHHHHH,failed
9,MNEKSFNYDFSVIMPIYNVELYLTEAIESIINQTIGFENIQLILVNDDSPDKSEIICKEYAQKYPNNIVYAKKQNGGVSSARNYGLKYAEGRYIQFLDPDDLVSEGTFENVLNFFDEHKNEIDIVAIPIFFAEGRTGEHNLNNKFSSTRILDVEKEPHHILTHCCSTFIKKDALKNIRFDENCKIGEDAKLVNLIISQKKKYGLVKEAKYHYRVREDGSSAMQTAKANKNWFNHSLITFSKNLIDIIKNHEQKIPLFLQYMVMHDLKWKLLIKDISETPLDENEYSEFLTLIREVLSYIDDDVIIETKSVSHFYLYHALKIKHGENYSRYVYERETEQDYYLYREGKIVSKLSDQTLTIEILEENEDSIHIEGFWSSLFNSKGFKFYAKIGETKIKAKNIKRQHNDYISLGEVIKKYPGFSIDIPKGHLADNHHIEFFITKGKKRKLTKLRFFKYSGLSNDLYNTYVAKKDYIFYYNYKKLMFKKNNFKNRFIKEFRFLKSLHKSGEKSKKRKSAIKKALMARMVHHVFTIFNRKPVWLFIDRQDKADDNAEHLFKYAINKNDGVKKYFIIKKDSKDYDRIKKYGKVIPYRSFRHKILTLSSSKVISTHADIWVVNPFFNMEIYFRDLFNFEFIFLQHGITMADHSEWLNKYNKNIKLLVTSAKPEYRSIVKGNYNYKKENILLGGFPRYDNLKKSEGEKQLLIMPTWRKDIVLPKDQAKGVRPYNPKFKDSEYFSRYNALINDERLIEFAKKNNYKITFFPHPDIQQQIVDFEKHDYVEFADYNSSYQMLFNSSNIMITDFSSVAFDFAYEKKPVIYYQYEKSYHFKLDYYDYKKMGFGDVLENHNSLVDKVIYYMKNNSRMEDKYRKRVDNFFAYTDKNNRNRIYNAILELDNNKVAK,failed
10,MNELFDAKESLSPAEREDSLFQRLPTLIENAKANSEHYGNIFSGIDASIASNREGLAQFPITRKFNVPSQQQLKPPFGGLNSVAIGQMARVFQSPGPLYEAQTDESDFWRMGRAFHAAGFRRGDLVHNTLSYHFSPGGFIMDGGARACGCAVFPAGVGNTEAQIEAIKQLQPTGYTGTPSYLLTLLQKYQEQYGELPSFTKALVSGEAVTADMQQAFTDKGIAVFQAYASAELGLIAYQVAGEQGLVIGEDIIVEIVDPDGMPVPPGEVGEVVVTSLDEKFPLIRYATGDLSAYIENDANSPYTNMRIKGWMGRADSAVKVKGLFVYPHQIQEVCRRHEITGSLKIERDGFNDTITFCCHDVHVSAEDIQATLQSVTKLKGNVQFVANDADQPLINDLRS,failed
11,MNEPLSSLELLPEEEGGANLTYFAFAAPTASAPDLPAVLPGPLPDVLSGRYRLERMLGAGGMGTVYRARDLLHEQFGDPAPLVALKLLNESVAESPDASALLYSEFALTRRLRHPNVVRLFTFDVDTACQRAYIVMELMPGLPLDRLLCERPEGLPWSELSAIARPLLDVLAYVHEQGVLHGDLKPSNVMLGEEGVRLFDFGLGQAQAGILDGLPQLSRGRIDAWTPGYAAPELLEGAPLSPAADLYALACVLYELADGRHPFRRLPSNQAREQGLERQLRAPRHLPRRCWPALRTALSLDPERRCIGVRELQEALGARRSWLAGVLAR,failed
12,MNEQPNNENITQSASRDLQIIEDDAFSYEGYQVVRGEFFAHTYEPSFTFNANKVSVNTACIKKLPQTDFVQILVNPDEKKLAVRPCQEDEKDSFRWCSATKKRSPRQITCRIFFAKVISLMEWNPSYRYKLLGKLIRSDNELLFVFDLTTPEIYVRAEKEDGKIKTSRTPTYPAEWQNQFGVPVEEHQSNLQINMFDGYAVFGILEHHHHHH,not failed
13,MNETEFYAYHIVTRKKMHIGQMIPFNKNQHNTLYHFFFEREQLNANGEDGIQILNNHYKNDELHINNENAKVVISYMDQTIRAARETIVEMVRLQEFPEYPSRLSCLYAAKSYEDALKWKALFDSYNREVLQIVKLRVIGSSFEGDGNLLPKEDGIPFSQKIEQARKYWKGNIRNELPELLINGEIEVVEIIDDFSSIHI,not failed
14,MNETINYDSLLILSVVAFFTPFLVSRLKRVNIPYQVGEIFIGILLGKSFLNIIKPDIWILFLSNLGLAYLMFLSGLAIDFDELKPKEGELLKDSKLFTSIKMFIVSIITAIILSFTLKFAGISEGYIFFALLFTAAAPGLLVPILKTKHIINSSYGQTLLVFGIITQLVSLIGVTFVASVAVNGITLKSFTFLIIFAVAIVVYFLSKIIFKVHDFSTIAFKNLHLSVRGAFVLVLVLVAVAEKVDSEIILGSFLAGMVFSLIVGKAKEEISHQLDVVGYGFLIPIFFIMVGVNVDLKAVVENPQSIAKIPLFILIFFLVKFIPSLLLKKKYGKRNSLAASMLLTAQLSLVIVGSQMALNLGYITAADYSAFVVTTVITCIFFPILFEKLITLNGDTNDTVEEDEKIIIREVLVSSQWYIGKALKDCKLPTGCRIFSMVRDDHEFMPNANTILEENDLVILAGVKHDVNETLNMLSTCDLTLPEE,failed
15,MNEVKAVWIRQWFPGLYQFKDYQRGWLTDDVRAAFSVVAVALPVAIAYAQLTGVPAIVGLYSCVLPMLVYALMGTSRQLIVGPDAATCAVIAAVVTPLAAGDTTKHWQLVMTMTAMTGFWCILASRLKLGIFADFLSRPILLGLLNGVALTIIVGQFAKVLGLKYEKRYLLERIVEAPELLYSLHWQTLGLSALTLAIYLVIKRWQPRWPAAMFAIMVAALLVWALNLESVGVQVVGVIQGGLPEFQAPAFDLGISRELVMPALNLAMVSFVSMMLTARSFAAKNGYDIDADKEFRALGVANVAAAFSQGFAISGADSRTAVNDANGGKSQLVSVIAALFIALVAVFAYQPLQFIPVAALGVVLIIASLSLLDLKGVWNLRKRDKDAFYLALITFIAVLVIGVIPGITLAVLLGLFQFLKLVMRPTDQMMGLDEEGTLRTLDGSEKAKPIPGMVIFRFNSPLTYFNAPYFKRRILDQTEREGAQVGCVIIDAVASFTHLDLSVMAMLADLHGILKKRGIRLILAGRKRSLRHWCDLTGINTAEGGIVLRADMYLAIKLSGCYLSAMEEGHVPVVQKEPDISVLLKPTTTEVA,failed
16,MNFDRTFLTFLGVIMLVHLHIFFAFLSLALLVIRGAMQLNGKNWRSIKLLKILPHLSDTLLIVSGVVILYLFAFGIEWWLVAKFALLILYIVFAAKFFSKKVSQPKSIFFWLACVSFIGAMLIAYLK,failed
17,MNFELSSPFSPTGDQPEAIAALSDGIKSGVPFQTLLGVTGSGKTFTIANVIKEVRKPTLILSHNKTLAAQLYSEFKAFFPNNAVEYFVSYYDYYQPEAYLPTTDTYIEKDLQINDEIDKLRLRATASLLSGRKDVIVVSSVSCLYGMADPTAFAEKVVHLEKGMRIDRDKLLRRFVDALYVNNKIEFNRGCFRVNGDTVDIFPAIETFDGAAYRIEFWDDEVDRISSFDPQTGQEIDEQDELNIYPTNLFVTTQERINTAIGQIDVDLGTQVNFLREIGKPYEAKRLYERVTFDLEMIRELGHCSGIENYSRYFDGRQAGERPFCLLDYFPKDFLLVVDESHVTIPQIRAMYGGDYSRKKNLVDYGFRLPAAMDNRPLTFDEFESLTPLAIYVSATPADYELEKSEGIVVDQVIRPTGLLDPVIEVRPTLNQIDDLMEEITQRAAVDERVLVTTLTKRMAEELTAYLTRMGIRCNYIHSDVDTLERIQIMDDLRKGLFDVLIGVNLLREGLDLPEVSLVAILDADKEGFLRSHRSLTQTAGRAARNVNGKVIFYADKITDSMRLTMDETARRREKQLAYNEKHGITPKQVIKNSVSLVAEKQQPVTGEPYAYVEPEPSLVADPVVQYMNRKQLEKAIERTKKQMMEAAKKLDFIEAAQFRDELVKLEDLLVTKKD,failed
18,MNFGTQIKMIRKENQLTQEQFGNQLNISRQTVSTWENNRYLPDIEMLVEIAKTFNLSLDDLILGNSVVKDKLVNDTKFVKRIRLSILSMIFILIAIVSALLFTSLPSHVSQDGVLQEPWFLVILAFFSLLTGLIIGMVNLVLIFINYYKYARRRK,failed
19,MNFKLNNTLSNEINTLIIGIPEHLNQLERISFNHIDITESLERLKHQHIIGSKVGKIYTTAFDVQDQTYRLITVGLGNLKTRSYQDMLKIWGHLFQYIKSEHIEDTYLLMDSFISKYDQLSDVLMACGIQSERATYEFDHYKSSKKAPFKTNLNLISESLIELDFIHEGISIGQSINLARDFSNMPPNVLTPQTFAEDIVNHFKNTKVKVDVKDYDTLVSEGFGLLQAVGKGSKHKPRLVTITYNGKDKDEAPIALVGKGITYDSGGYSIKTKNGMATMKFDMCGAANVVGIIEAASRLQLPVNIVGVLACAENMINEASMKPDDVFTALSGETVEVMNTDAEGRLVLADAVFYANQYQPSVIMDFATLTGAAIVALGDDKAAAFESNSKVILNDILQISSEVDEMVFELPITATERASIKHSDIADLVNHTNGQGKALFAASFVTHFSGQTPHIHFDIAGPATTNKASYNGPKGPTGFMIPTIVQWLKQQ,not failed
